Here are results for three substances from paper PMC5505988.

For the test, the target named is HLA-A*11:01 heavy chain with β2-microglobulin (human).

“SSCS, N-terminal 4-mer of EBV LMP2(340–349) (peptide)”: the melting temperature (Tm) of the pHLA complex refolded with SSCS + SCPLSK (m9 + m10), thermofluor thermal shift assay worked out at 50.3 °C. “SSCSS, N-terminal 5-mer of EBV LMP2(340–349) (peptide)”: the melting temperature (Tm) of the pHLA complex refolded with SSCSS + SCPLSK (m11 + m10), thermofluor thermal shift assay was determined as 49.7 °C.

Regarding “SSCSSC, EBV LMP2(340–345), N-terminal 6-mer (peptide)”, the melting temperature (Tm) of the pHLA complex refolded with SSCSSC + SCPLSK (m13 + m10), thermofluor thermal shift assay stood at 48.7 °C and the melting temperature (Tm) of the pHLA complex refolded with SSCSSC + SSCPLSK (m13 + m5), thermofluor thermal shift assay was determined as 49.4 °C.
